# In patent US20220324970A1 (Janssen / Centocor, published 2022):
# Like-named read-outs stand apart in the source and are kept apart here.
# T1: hpIgR_D3
# T1 construct: HIS-tagged construct from HEK293 cells; also called human pIgR extracellular domain 3 (D3); hD3
# T1 HIS-tagged domain construct: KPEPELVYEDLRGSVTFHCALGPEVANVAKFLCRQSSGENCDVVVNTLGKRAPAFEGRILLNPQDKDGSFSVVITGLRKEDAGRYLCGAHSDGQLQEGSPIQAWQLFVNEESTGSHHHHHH
# T2: hpIgR_D2-D3
# T2 construct: HIS-tagged construct from HEK293 cells; also called human pIgR extracellular domain 2-domain 3 (D2-D3); hD2-D3
# T2 HIS-tagged domain construct: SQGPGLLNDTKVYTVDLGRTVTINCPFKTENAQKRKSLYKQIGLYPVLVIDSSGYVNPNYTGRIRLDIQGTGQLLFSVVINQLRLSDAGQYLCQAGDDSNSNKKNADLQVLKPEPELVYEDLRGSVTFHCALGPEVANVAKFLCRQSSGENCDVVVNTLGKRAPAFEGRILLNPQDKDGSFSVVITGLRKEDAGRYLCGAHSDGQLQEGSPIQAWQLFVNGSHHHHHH
# T3: human pIgR extracellular domain 4-domain 5 (D4-D5) (human, UniProt P01833 350-565)
# T3 construct: HIS-tagged construct made in HEK293 cells; also called hpIgR domains 4-5
# T3 chain: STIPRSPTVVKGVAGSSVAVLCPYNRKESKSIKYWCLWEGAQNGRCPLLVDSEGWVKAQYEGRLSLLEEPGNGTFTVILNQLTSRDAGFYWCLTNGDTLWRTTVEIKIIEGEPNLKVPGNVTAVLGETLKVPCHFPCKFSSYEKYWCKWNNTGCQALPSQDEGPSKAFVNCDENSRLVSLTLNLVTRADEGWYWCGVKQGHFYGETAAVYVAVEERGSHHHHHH
# B1: VHH4-linker-mono-Fc protein (Fc fusion)
# chain: EVQVVESGGGLVQAGGSLRLSCAVSGTSVSSNAMGWYRQAPGKQREWVGFIDRIATTTIATSVKGRFAITRDNAKNTVYLQMSGLKPEDTAVYYCNHPLTARWGQGTQVTVSSEPKTPKPQPQPQLQPQPNPTTESKSPKSPAPELLGGPSVFLFPPKPKDTLMISRTPEVTCVVVDVSHEDPEVKFNWYVDGVEVHNAKTKPREEQYNSTYRVVSVLTVLHQDWLNGKEYKCKVSNKALPAPIEKTISKAKGQPREPQVYTKPPSREEMTKNQVSLSCLVKGFYPSDIAVEWESNGQPENNYKTTVPVLDSDGSFRLASYLTVDKSRWQQGNVFSCSVMHEALHNHYTQKSLSLSPGK
# notes: also called VHH4-mono-Fc; hpIgR_073
# B2: VHH9-linker-mono-Fc protein (Fc fusion)
# chain: QVQLVESGGGLVQAGGSLRLSCAVSGRTFSTYRMGWFRQAPGKERSFVAAISWSGGSTTYADPVKGRFTISRDNAKNTVYLRMNSLKPEDTAVYYCNDQRGYWGQGTLVTVSSEPKTPKPQPQPQLQPQPNPTTESKSPKSPAPELLGGPSVFLFPPKPKDTLMISRTPEVTCVVVDVSHEDPEVKFNWYVDGVEVHNAKTKPREEQYNSTYRVVSVLTVLHQDWLNGKEYKCKVSNKALPAPIEKTISKAKGQPREPQVYTKPPSREEMTKNQVSLSCLVKGFYPSDIAVEWESNGQPENNYKTTVPVLDSDGSFRLASYLTVDKSRWQQGNVFSCSVMHEALHNHYTQKSLSLSPGK
# notes: made in CHO cells; also called VHH9-mono-Fc; hpIgR_221
# What was measured:
# [1] = target: T4, human pIgR extracellular domain (ECD) (human, UniProt P01833 19-638); assay: BLI; summary table, repeats Table 1
# T4 construct: also called hpIgR ECD
# T4 sequence (P01833 other isoform, or with tags, fused parts or gaps): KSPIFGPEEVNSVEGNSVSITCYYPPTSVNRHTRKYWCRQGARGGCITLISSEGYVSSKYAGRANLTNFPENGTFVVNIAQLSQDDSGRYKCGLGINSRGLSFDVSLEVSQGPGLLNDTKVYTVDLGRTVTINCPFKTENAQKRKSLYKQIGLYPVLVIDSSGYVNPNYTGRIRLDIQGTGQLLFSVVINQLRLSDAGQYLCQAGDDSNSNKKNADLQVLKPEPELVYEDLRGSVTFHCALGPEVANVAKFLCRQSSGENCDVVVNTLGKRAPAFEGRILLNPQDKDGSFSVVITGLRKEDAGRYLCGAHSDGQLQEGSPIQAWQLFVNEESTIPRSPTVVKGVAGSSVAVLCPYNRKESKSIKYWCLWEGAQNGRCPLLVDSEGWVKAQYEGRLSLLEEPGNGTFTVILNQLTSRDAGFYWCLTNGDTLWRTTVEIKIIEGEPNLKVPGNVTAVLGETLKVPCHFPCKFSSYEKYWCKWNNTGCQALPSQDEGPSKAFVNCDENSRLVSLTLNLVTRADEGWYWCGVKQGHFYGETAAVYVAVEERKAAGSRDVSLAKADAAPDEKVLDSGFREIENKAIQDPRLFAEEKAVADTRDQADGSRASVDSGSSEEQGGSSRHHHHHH
# [2] = target: T5, human pIgR, full-length, on cells (human, UniProt P01833 19-764); assay: cell-based or functional assay
# T5 sequence (P01833 19-764): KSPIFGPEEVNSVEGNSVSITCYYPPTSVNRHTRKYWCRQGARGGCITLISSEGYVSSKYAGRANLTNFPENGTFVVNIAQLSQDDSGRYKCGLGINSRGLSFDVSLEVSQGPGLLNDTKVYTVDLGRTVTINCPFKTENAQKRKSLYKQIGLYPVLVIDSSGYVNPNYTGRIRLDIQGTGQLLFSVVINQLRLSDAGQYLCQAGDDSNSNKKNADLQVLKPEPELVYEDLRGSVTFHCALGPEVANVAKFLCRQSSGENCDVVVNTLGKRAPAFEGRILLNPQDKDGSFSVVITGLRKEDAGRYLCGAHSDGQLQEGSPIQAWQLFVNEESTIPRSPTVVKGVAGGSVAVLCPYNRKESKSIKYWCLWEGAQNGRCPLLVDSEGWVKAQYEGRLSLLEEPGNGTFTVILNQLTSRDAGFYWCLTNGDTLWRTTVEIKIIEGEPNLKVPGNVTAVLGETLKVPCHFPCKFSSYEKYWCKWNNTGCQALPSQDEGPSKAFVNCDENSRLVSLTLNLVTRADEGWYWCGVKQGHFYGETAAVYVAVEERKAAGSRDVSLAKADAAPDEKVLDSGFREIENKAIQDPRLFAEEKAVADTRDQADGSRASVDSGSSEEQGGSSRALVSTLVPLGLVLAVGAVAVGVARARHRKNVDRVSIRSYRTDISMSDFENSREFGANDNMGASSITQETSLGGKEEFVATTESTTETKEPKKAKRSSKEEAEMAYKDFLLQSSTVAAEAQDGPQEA
# [3] = target: T4, human pIgR extracellular domain (ECD); assay: BLI (Octet), VHH-mono-Fc and hpIgR ectodomain
# [4] = target: T5, human pIgR, full-length, on cells; assay: cell-based or functional assay; remark: listed apart in the source
# [5] = target: T6, human pIgR extracellular domain 1 (D1) (human, UniProt P01833 19-127); assay: ECL (MSD) heat map, HIS-tagged construct captured via anti-HIS, anti-human-Fc detection;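 note: VHH-mono-Fc molecules tested at 100 µg/ml for 2 h on captured His-tagged pIgR constructs (10 µg/ml), read-out as electrochemiluminescence units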
# T6 construct: HIS-tagged construct made in HEK293 cells; also called hpIgR domain-1
# T6 sequence (P01833 other isoform, or with tags, fused parts or gaps limits assumed): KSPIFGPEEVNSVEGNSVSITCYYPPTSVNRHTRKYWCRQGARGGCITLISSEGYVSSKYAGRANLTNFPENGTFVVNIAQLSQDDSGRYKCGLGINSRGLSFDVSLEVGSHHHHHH
# Method: (§1) A meso-scale discovery (MSD) platform was used for conducting epitope mapping and epitope burial studies. To test the binding of VHH-mono-Fc molecules to purified pIgR protein constructs, Streptavidin MSD plates were coated with a biotinylated anti-HIS antibody (2 μg/ml in PBS) for 1 hour at RT with 1000 rpm, washed 3× with PBT (PBS+0.1% Tween-20), incubated with blocking buffer for 1 hour at RT, incubated with His-tagged pIgR proteins (10 μg/ml in PBS) for 2 hours at RT with 1000 rpm, washed 3× with PBT, incubated with VHH-mono-Fc molecules (100 μg/ml in PBS) for 2 hours at RT with 1000 rpm, washed 3× with PBT, incubated with ruthenylated-anti-human-Fc antibody (2 μg/ml in PBS) for 1 hour at RT with 1000 rpm, washed 3× with PBT and read plates in 40 ul reading buffer using the MSD imager. ECLU values were plotted as a heatmap.
# (§2) Binding of VHH-mFc molecules were tested to immobilized pIgR constructs by the electrochemiluminescence method.
# [6] = target: T7, human pIgR extracellular domain 5 (D5) (human, UniProt P01833 460-565); assay: as above
# T7 construct: HIS-tagged construct made in HEK293 cells; also called hpIgR domain 5
# Method: as §1, §2
# hpIgR_D3 = target: T1, hpIgR_D3; assay: as above
# Method: as §1, §2
# [7] = target: T5, human pIgR, full-length, on cells; assay: flow cytometry on MDCK-hpIgR cells
# [8] = target: T4, human pIgR extracellular domain (ECD); assay: ECL (MSD), anti-VHH detection against anti-Fc detection
# Method: (§3) To check whether VHH recognizes a buried epitope on pIgR, EC₅₀ values were measured for VHH-mono-Fc molecules binding to hpIgR-ECD protein by electrochemiluminescence using two different detection antibodies, an anti-Fc antibody and an anti-VHH antibody. pIgR ECD (10 μg/ml in PBS) was coated on high-bind MSD plates for 2 hours at RT with 1000 rpm, incubated with blocking buffer for 1 hour at RT, incubated with VHH-mono-Fc molecules (increasing concentrations in PBS) for 2 hours at RT with 1000 rpm, washed 3× with PBT, incubated with ruthenylated secondary antibody (2 μg/ml in PBS) for 1 hour at RT with 1000 rpm, washed 3× with PBT and read plates in 40 ul reading buffer using the MSD imager. EC50 was calculated by fitting log VHH concentration versus log ECLU in Prism (Graphpad). The increase in EC₅₀ (>50-fold) due to anti-VHH detection was used as a measure to determine whether VHH recognized buried epitope on pIgR.
# [9] = target: T4, human pIgR extracellular domain (ECD); assay: ECL (MSD), hpIgR-ECD coated, anti-VHH detection
# Method: as §3
# [10] = target: T4, human pIgR extracellular domain (ECD); assay: BLI; summary table, repeats Table 1; remark: listed apart in the source
# [11] = target: T8, human pIgR extracellular domain 1-domain 2 (D1-D2) (human, UniProt P01833 19-240); assay: BLI (Octet RED384), 1:1 fit, 25 C, PBS
# T8 construct: HIS-tagged construct made in HEK293 cells
# T8 sequence (P01833 other isoform, or with tags, fused parts or gaps limits assumed): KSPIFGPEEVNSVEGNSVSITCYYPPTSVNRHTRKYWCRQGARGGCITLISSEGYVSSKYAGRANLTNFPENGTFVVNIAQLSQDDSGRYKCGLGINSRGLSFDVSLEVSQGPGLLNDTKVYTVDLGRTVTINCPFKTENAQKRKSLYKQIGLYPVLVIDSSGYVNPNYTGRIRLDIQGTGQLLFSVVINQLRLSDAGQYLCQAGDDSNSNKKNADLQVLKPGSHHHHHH
# Method: (§4) Bio-layer Interferometry was performed as follows. […] Data were collected with Octet Data Acquisition version 7.1.0.87 (ForteBio) and analyzed using Octet Data Analysis version 7.1 (ForteBio). To measure binding kinetics between VHH-mono-Fc molecules and HIS-tagged pIgR proteins, VHH-mono-Fc was immobilized on amine-reactive generation-2 (ARG2) biosensors according to manufacturer's instructions and increasing concentrations of pIgR proteins were exposed to sensor-immobilized VHH. In some cases, HIS-tagged pIgR proteins were immobilized on anti-HIS biosensors and exposed to increasing concentrations of VHH-mono-Fc molecules. Association and dissociation rates were measured by the shift in wavelength (nm). […] All reactions were performed at 25° C. in PBS.
# [12] = target: T9, human pIgR extracellular domain 2 (D2) (human, UniProt P01833 128-242); assay: BLI (Octet RED384), 1:1 fit, 25 C, PBS
# T9 construct: HIS-tagged construct made in HEK293 cells; also called hpIgR domain 2
# Method: as §4
# hpIgR_D2-D3 [13] = target: T2, hpIgR_D2-D3; assay: BLI (Octet RED384), 1:1 fit, 25 C, PBS
# Method: as §4
# [14] = target: T4, human pIgR extracellular domain (ECD); assay: BLI (Octet RED384), 1:1 fit, 25 C, PBS
# Method: as §4
# [15] = target: T5, human pIgR, full-length, on cells; assay: cell-based or functional assay; remark: listed apart in the source
# [16] = target: T8, human pIgR extracellular domain …; assay: BLI (Octet RED384), 1:1 fit, 25 C, PBS; column kdis
# [17] = target: T9, human pIgR extracellular domain 2 (D2); assay: as above
# hpIgR_D2-D3 [18] = target: T2, hpIgR_D2-D3; assay: as above
# [19] = target: T4, human pIgR extracellular domain (ECD); assay: as above
# [20] = target: T4, human pIgR extracellular domain (ECD); assay: ECL (MSD), hpIgR-ECD coated, anti-Fc detection
# Method: as §3
# [21] = target: T3, human pIgR extracellular domain …; assay: ECL (MSD) heat map, HIS-tagged construct captured via anti-HIS, anti-human-Fc detection
# [22] = target: T5, human pIgR, full-length, on cells; assay: flow cytometry on MDCK-hpIgR cells; summary table, repeats Table 1
# [23] = target: T5, human pIgR, full-length, on cells; assay: as above; remark: listed apart in the source
# Method: Flow Cytometry was performed as follows. To test whether VHH-mono-Fc molecules recognize cell-surface hpIgR, Madin-Darby canine kidney (MDCK) cells engineered to express full-length hpIgR were used. Cells were cultured in Dulbecco's modified Eagle's medium containing 10% fetal calf serum at 37° C. with 5% CO₂. Cells were split into equal fractions (≈70,000 cells) and incubated with increasing concentrations of VHH-mono-Fc molecules for 30 min at 4 C. […] Cells were washed twice with cold staining buffer, resuspended in running buffer and analyzed with an iQue Screener (IntelliCyt Corporation). Binding was assessed by RL1 (A647) Geomeans from the live cell population and EC50 was calculated by fitting log VHH concentration versus MFI in Prism (Graphpad).
# [24] = target: T3, human pIgR extracellular domain …; assay: BLI (Octet RED384), 1:1 fit, 25 C, PBS
# [25] = target: T4, human pIgR extracellular domain (ECD); assay: BLI (Octet RED384), 1:1 fit, 25 C, PBS; remark: listed apart in the source
# [26] = target: T3, human pIgR extracellular domain …; assay: BLI (Octet RED384), 1:1 fit, 25 C, PBS; column kdis
# [27] = target: T4, human pIgR extracellular domain (ECD); assay: as above; remark: listed apart in the source
# [28] = target: T9, human pIgR extracellular domain 2 (D2); assay: ECL (MSD) heat map, HIS-tagged construct captured via anti-HIS, anti-human-Fc detection;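 note: VHH-mono-Fc molecules tested at 100 µg/ml for 2 h on captured His-tagged pIgR constructs (10 µg/ml), read-out as electrochemiluminescence units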
# Method: as §1, §2
# [29] = target: T8, human pIgR extracellular domain …; assay: as above
# hpIgR_D2-D3 [30] = target: T2, hpIgR_D2-D3; assay: as above
Binder,Kd [1] [nM],For. Trans. (Fold Incr.) [2] [fold],Rev. Trans (Fold Incr.) [2] [fold],Kd [3] [nM],Transcytosis (Fold Incr.) [4] [fold],binding result [5],binding result [6],binding result (hpIgR_D3),EC50 [7] [nM],Fold change in EC50 [8] [fold],EC50 [9] [nM],Kd [10] [nM],increase in their apical concentration relative to control VHH (MDCK-hpIgR monolayers) [15] [fold],EC50 [20] [nM],EC50 [22] [nM],EC50 [23] [nM],also measured
B1,22,15.1,8,22,12.6,no binding (tested: 100 ug/ml (single concentration)),no binding (tested: 100 ug/ml (single concentration)),no binding (tested: 100 ug/ml (single concentration)),32.9,180,206,22,> 10,1.1,32.9,32.9,Kd [11]: 77.3 nM; kon [11]: 19200 M⁻¹ s⁻¹; Kd [12]: 83.8 nM; kon [12]: 19100 M⁻¹ s⁻¹; Kd (hpIgR_D2-D3 [13]): 86.1 nM; kon (hpIgR_D2-D3 [13]): 14000 M⁻¹ s⁻¹; Kd [14]: 76 nM; kon [14]: 14400 M⁻¹ s⁻¹; koff [16]: 0.00149 s⁻¹; koff [17]: 0.0016 s⁻¹; koff (hpIgR_D2-D3 [18]): 0.0012 s⁻¹; koff [19]: 0.0011 s⁻¹; binding result [21]: no binding (tested: 100 ug/ml (single concentration))
B2,4,24.2,6.6,4,22.4,no binding (tested: 100 ug/ml (single concentration)),no binding (tested: 100 ug/ml (single concentration)),no binding (tested: 100 ug/ml (single concentration)),1.5,1.8,0.8,4,> 10,0.4,1.5,1.5,Kd [24]: 12.6 nM; kon [24]: 133000 M⁻¹ s⁻¹; Kd [25]: 19.6 nM; kon [25]: 79300 M⁻¹ s⁻¹; koff [26]: 0.00169 s⁻¹; koff [27]: 0.00156 s⁻¹; binding result [28]: no binding (tested: 100 ug/ml (single concentration)); binding result [29]: no binding (tested: 100 ug/ml (single concentration)); binding result (hpIgR_D2-D3 [30]): no binding (tested: 100 ug/ml (single concentration))
